Assay results from US8486893B2, “Treatment of conditions involving demyelination” (Biogen Idec MA Inc., priority 2004, dated 2013).

Assays:
[1] = test system: A2B5+ oligodendrocytes; test: Differentiation of A2B5+ oligodendrocytes treated with Sp35-Fc (O4 staining); type: cell-based, rat; conditions: increasing concentrations, versus control-Fc, FIG. 8
Experimental: Enriched populations of oligodendrocytes were grown from female Long Evans P2 rats as described by Conn, Meth. Neurosci. 2:1-4 (Academic Press; 1990) with modifications as follows. Briefly, the forebrain was dissected and placed in Hank's buffered salt solution (HBSS; Invitrogen). The tissue was cut into 1-mm fragments and was incubated at 37° C. for 15 min in 0.01% trypsin and 10 μg/ml DNase. Dissociated cells were plated on poly-L-lysine-coated T75 tissue culture flasks and were grown at 37° C. for 10 d in DMEM medium with 20% fetal calf serum (Invitrogen). Oligodendrocyte precursors (A2B5+) were collected by shaking the flask overnight at 200 rpm at 37° C., resulting in a 95% pure population. […] These differentiation states are readily apparent from changes in morphology: A2B5^+ cells are bipolar in shape, O4^+ premyelinating oligodendrocytes have longer and more branched processes and MBP^+ mature oligodendrocytes contain myelin sheet structures between processes.
A2B5^+ oligodendrocytes, prepared as described in Example 1, were treated with increasing concentrations of Sp35-Fc or control-Fc for 3 days (Sp35-Fc was prepared as described in Example 2). […] After 48 h (72 h for RNAi), cultures were stained with antibody to O4, and the number of total O4+ and mature O4+ oligodendrocytes was quantified. Samples were analyzed in duplicate. […]

[2] = test system: spinal cord injury rats; test: Spinal cord injury (dorsal hemisection T6/T7), intrathecal mini-osmotic pump; type: in vivo, rat
Experimental: Spinal cord injury was induced in adult female Long Evans rats (190-210 g; Charles River). A dorsal hemisection was performed at T6/T7, completely interrupting the main dorsomedial and the minor dorsolateral corticospinal tract (CST) components. The cord was sterotaxically transected at a depth of 1.8 mm from the surface using a microscalpel. […] Postoperative care comprised analgesia (Buprenorphine/Buprenex, Reckitt Benckiset Healthcare Ltd., 0.05 mg/kg subcutaneously) every 8-12 hours for 3 days and antibiotic treatment (ampicillin, Bristol Myers Squibb, 100 mg/kg subcutaneously twice daily) for 7 days after surgery. Bladders were expressed manually twice a day for the duration of the study (4 weeks) or until return of function. On completion of the study, rats were anesthetized and trans-cardially perfused with heparinized saline followed by 4% paraformaldehyde (PFA). The spinal cords were removed, embedded in paraffin, and 10 μm sections were cut from for histological analysis.
To quantify apoptotic cell death after SCI, animals were euthanized 3 or 7 days after SCI and stained using anti-activated-Caspase-3 antibody (Cell Signaling Technologies) and TUNEL staining (Promega). The sections were also stained with anti-NeuN antibody (Chemicon) and anti-CC1 antibody (Calbiochem) to identify neurons and oligodendrocytes, respectively.

B1: Sp35-Fc: extra-cellular portion of human Sp35 (residues 1-532) fused to the hinge and Fc region of human IgG1 (protein)
chain: TGCPPRCECSAQDRAVLCHRKRFVAVPEGIPTETRLLDLGKNRIKTLNQDEFASFPHLEELELNENIVSAVEPGAFNNLFNLRTLGLRSNRLKLIPLGVFTGLSNLTKLDISENKIVILLDYMFQDLYNLKSLEVGDNDLVYISHRAFSGLNSLEQLTLEKCNLTSIPTEALSHLHGLIVLRLRHLNINAIRDYSFKRLYRLKVLEISHWPYLDTMTPNCLYGLNLTSLSITHCNLTAVPYLAVRHLVYLRFLNLSYNPISTIEGSMLHELLRLQEIQLVGGQLAVVEPYAFRGLNYLRVLNVSGNQLTTLEESVFHSVGNLETLILDSNPLACDCRLLWVFRRRWRLNFNRQQPTCATPEFVQGKEFKDFPDVLLPNYFTCRRARIRDRKAQQVFVDEGHTVQFVCRADGDPPPAILWLSPRKHLVSAKSNGRLTVFPDGTLEVRYAQVQDNGTYLCIAANAGGNDSMPAHLHVRSYSPDWPHQPNKTFAFISNQPGE
modifications: left off: a dimerising Fc or GST
notes: extra-cellular portion of human Sp35 (residues 1-532) fused to the hinge and Fc region of human IgG1
[1]
  differentiation of A2B5+ cells into O4+ cells: promoted differentiation of A2B5^+ cells into O4^+ cells in a concentration dependent manner
[1]; listed as LINGO-1-Fc
  differentiation of A2B5+ cells into O4+ cells: Dose-dependent differentiation
[2]; 3 days after SCI, 0.25 μl/h of 25 μM intrathecal
  number of activated-Caspase-3-positive neurons and oligodendrocytes versus controls: significantly smaller
[2]; four weeks after SCI
  neuron and oligodendrocyte survival around the lesion site (anti-βIII-tubulin, anti-O4): more neurons and oligodendrocytes survived
